Consider one substance from PMC3860269.

In this test the target is in vitro assembled HIV-1 CA–NC complexes bearing the capsid change N74D (HIV-1). The test is described as follows: co-sedimentation.

Consider “GFP-Nup98 (from UniProt P52948 1-880) (natural protein)”, for which the fold decrease of binding against wild type CA–NC complexes is 2 fold.
